Percent of cells bound (ST cells, after neuraminidase) (% of the cells), percent of cells bound (ST cells, without neuraminidase) (% of the cells) and percent of cells bound (BHK-21 cells expressing APN, after neuraminidase) (% of the cells) data for 1 substance are collected here from article PMC3761233.

In test [1] the target is endogenous porcine aminopeptidase N on ST cells and IPI-21 cells (porcine (endogenous in ST and IPI-21 cells)) (UniProt P15145). The test can be described thus: flow cytometry on cells.
In test [2] the target is porcine aminopeptidase N, expressed from a plasmid on BHK-21 or HEK 293T cells (porcine) (UniProt P15145). The test can be described thus: flow cytometry on cells.

Take “soluble TGEV spike protein (S1 subunit fused to the human IgG Fc portion) (from UniProt P07946 29-1447) (Fc fusion)”: in test [1], the percent of cells bound (ST cells, after neuraminidase) (% of the cells) is over 60 and the percent of cells bound (ST cells, without neuraminidase) (% of the cells) came out at 50. In addition, the percent of cells bound (BHK-21 cells expressing APN, after neuraminidase) (% of the cells) in test [2] was over 60.
